According to PMC5705180:

Molecular target: Recombinant human IGF-II R (CI-MPR), cation-independent mannose-6-phosphate receptor (human) (UniProt P11717)
Assay: SPR

| Substance | Kd |
| --- | --- |
| Bis-phosphoglycoprotein 30: bovine ribonuclease B carrying a bis-M6P-Man6GlcNAc2 glycan at Asn-34 (from UniProt P61823 27-150) (enzyme) | 28.9 nM |
| Cyclic phosphoglycopeptide 34: HIV-1 ZM109 V1V2 cyclic peptide carrying two bis-M6P-Man6GlcNAc2 glycans at N160 and N173 | 2.35 nM |
| Phosphoglycoprotein 32: bovine ribonuclease B carrying the unnatural bis-M6P Man3GlcNAc2 glycan (from UniProt P61823 27-150) (enzyme) | 168 nM |
